Results reported in US20250188133A1, “CHIMERIC BACTERIOCINS AND METHOD FOR THE CONTROL OF PSEUDOMONAS” (priority 2022, published 2025).

Experiments:
Assay type in all cases: cell-based
[1] = tested on: P. aeruginosa Pr335; assay: agar disc-diffusion assay; conditions: strain Pr335; 0.3, 3 and 30 μg of protein spotted on discs on CAA agar lawn, overnight
Protocol: (§1) Overnight P. aeruginosa cultures grown in CAA medium were equalized till OD595=1.0 in CAA and diluted 100×. Sterile cotton swab was briefly submerged in diluted microbial suspension, removing the excess of liquid by pressing it against the container wall. The swab was used for evenly streaking bacteria on plates containing growth medium with CAA solid agar (1.5%). 6 mm diameter sterile Whatman discs were placed on soft-agar and 0.3-30 μg of chimeric pyocins were spotted to paper disks. The plates were incubated overnight at 37° C. and bacteriocin inhibition zones were observed.
(§2) Next, all 25 P. aeruginosa strains were subjected to agar disc-diffusion assay by spotting different amounts of purified pyocin S5 (0.3 μg, 3 μg and 30 μg) on bacteria lawns. Six P. aeruginosa strains were resistant to pyocin S5. Four of these six strains were pyocin S5 and immunity protein-encoding strains—PA14, PAO1, […] and NCTC 13921. Two cystic fibrosis isolates, 12-35708 and 12-29165 were also completely resistant to pyocin S5, despite the absence of S5, or S5 immunity protein coding genes. […] Turbid inhibition zones were detected when 3 μg and 30 μg of S5 were spotted on the lawn of these strains (Table 1, FIG. 3).

[2] = tested on: P. aeruginosa ATCC 29260; assay: agar disc-diffusion assay; conditions: strain ATCC 29260; 0.3, 3 and 30 μg of protein spotted on discs on CAA agar lawn, overnight
Protocol: as §1, §2

[3] = tested on: P. aeruginosa Bu002; assay: agar disc-diffusion assay; conditions: strain Bu002; 0.3, 3 and 30 μg of protein spotted on discs on CAA agar lawn, overnight
Protocol: as §1, §2

[4] = tested on: P. aeruginosa BL77; assay: agar disc-diffusion assay; conditions: strain BL77; 0.3, 3 and 30 μg of protein spotted on discs on CAA agar lawn, overnight
Protocol: as §1, §2

[5] = tested on: P. aeruginosa HP7; assay: agar disc-diffusion assay; conditions: strain HP7; 0.3, 3 and 30 μg of protein spotted on discs on CAA agar lawn, overnight
Protocol: as §1, §2

[6] = tested on: P. aeruginosa NCTC 13437; assay: agar disc-diffusion assay; conditions: strain NCTC 13437; 0.3, 3 and 30 μg of protein spotted on discs on CAA agar lawn, overnight
Protocol: as §1, §2

[7] = tested on: P. aeruginosa HP1; assay: agar disc-diffusion assay; conditions: strain HP1; 0.3, 3 and 30 μg of protein spotted on discs on CAA agar lawn, overnight
Protocol: as §1, §2

[8] = tested on: P. aeruginosa PAO1; assay: agar disc-diffusion assay; conditions: strain PAO1; 0.3, 3 and 30 μg of protein spotted on discs on CAA agar lawn, overnight
Protocol: as §1, §2

[9] = tested on: P. aeruginosa HP52; assay: agar disc-diffusion assay; conditions: strain HP52; 0.3, 3 and 30 μg of protein spotted on discs on CAA agar lawn, overnight
Protocol: as §1, §2

[10] = tested on: P. aeruginosa BR79; assay: agar disc-diffusion assay; conditions: strain BR79; 0.3, 3 and 30 μg of protein spotted on discs on CAA agar lawn, overnight
Protocol: as §1, §2

[11] = tested on: P. aeruginosa Boston 41501 (ATCC 27853); assay: agar disc-diffusion assay; conditions: strain Boston; 0.3, 3 and 30 μg of protein spotted on discs on CAA agar lawn, overnight
Protocol: as §1, §2

[12] = tested on: P. aeruginosa A19; assay: agar disc-diffusion assay; conditions: strain A19; 0.3, 3 and 30 μg of protein spotted on discs on CAA agar lawn, overnight
Protocol: as §1, §2

[13] = tested on: P. aeruginosa HP41; assay: agar disc-diffusion assay; conditions: strain HP41; 0.3, 3 and 30 μg of protein spotted on discs on CAA agar lawn, overnight
Protocol: as §1, §2

[14] = tested on: P. aeruginosa HP40; assay: agar disc-diffusion assay; conditions: strain HP40; 0.3, 3 and 30 μg of protein spotted on discs on CAA agar lawn, overnight
Protocol: as §1, §2

[15] = tested on: P. aeruginosa PA14; assay: agar disc-diffusion assay; conditions: strain PA14; 0.3, 3 and 30 μg of protein spotted on discs on CAA agar lawn, overnight
Protocol: as §1, §2

[16] = tested on: P. aeruginosa BI80; assay: agar disc-diffusion assay; conditions: strain BI80; 0.3, 3 and 30 μg of protein spotted on discs on CAA agar lawn, overnight
Protocol: as §1, §2

[17] = tested on: P. aeruginosa HP6; assay: agar disc-diffusion assay; conditions: strain HP6; 0.3, 3 and 30 μg of protein spotted on discs on CAA agar lawn, overnight
Protocol: as §1, §2

[18] = tested on: P. aeruginosa EY76; assay: agar disc-diffusion assay; conditions: strain EY76; 0.3, 3 and 30 μg of protein spotted on discs on CAA agar lawn, overnight
Protocol: as §1, §2

[19] = tested on: P. aeruginosa UR78; assay: agar disc-diffusion assay; conditions: strain UR78; 0.3, 3 and 30 μg of protein spotted on discs on CAA agar lawn, overnight
Protocol: as §1, §2

[20] = tested on: P. aeruginosa ATCC 19660; assay: agar disc-diffusion assay; conditions: strain ATCC 19660; 0.3, 3 and 30 μg of protein spotted on discs on CAA agar lawn, overnight
Protocol: as §1, §2

[21] = tested on: P. aeruginosa 13-18499; assay: agar disc-diffusion assay; conditions: strain 13-18499; 0.3, 3 and 30 μg of protein spotted on discs on CAA agar lawn, overnight
Protocol: as §1, §2

[22] = tested on: P. aeruginosa NCTC 13921; assay: agar disc-diffusion assay; conditions: strain NCTC 13921; 0.3, 3 and 30 μg of protein spotted on discs on CAA agar lawn, overnight
Protocol: as §1, §2

[23] = tested on: P. aeruginosa HP75; assay: agar disc-diffusion assay; conditions: strain HP75; 0.3, 3 and 30 μg of protein spotted on discs on CAA agar lawn, overnight
Protocol: as §1, §2

[24] = tested on: P. aeruginosa strains; assay: agar disc-diffusion assay, panel of 25 strains
Protocol: as §1, §2

B1: S5-Pflu095: chimeric bacteriocin SEQ ID NO: 9: pyocin S5 first segment fused to P. fluorescens Pflu095 killing domain (protein)
chain: MSNDNEVPGSMVIVAQGPDDQYAYEVPPIDSAAVAGNMFGDLIQREIYLQKNIYYPVRSIFEQGTKEKKEINKKVSDQVDGLLKQITQGKREATRQERVDVMSAVLHKMESDLEGYKKTFTKGPFIDYEKQSSLSIYEAWVKIWEKNSWEERKKYPFQQLVRDELERAVAYYKQDSLSEAVKVLRQELNKQKALKEKEDLSQLERDYRTRKANLEMKVQSELDQAGSALPPLVSPTPEQWLERATRLVTQAIADKKQLQTTNNTLIKNSPTPLEKQKAIYNGELLVDEIASLQARLVKLNAETTRRRTEKDKVRTEVVDIEAAIKFTSDFYAEAGVRFGDSASKLASDLADSAQGKKIRSADEAFKAFDKYKNELDKKFSVKDRAAAAKYIDSIDYEAIGKAATKFSKGLGYVGPVIDAKDSIIEFINSMESGDWKPFFLKLESIALGLAATAFVGIAFGFIATTPMGILAFAFIVAATGAAIDDNFAEKLNKFVSSL
modifications: S5-Pflu095
**Q.** Which “Activity in agar disc-diffusion assay” value [1] does the source give for B1 here?
**A.** *** (activity detected with 0.3 μg of protein)

**Q.** And the “Activity in agar disc-diffusion assay” value [2]?
**A.** *** (activity detected with 0.3 μg of protein)

**Q.** And the “Activity in agar disc-diffusion assay” value [3]?
**A.** *** (activity detected with 0.3 μg of protein)

**Q.** And the “Activity in agar disc-diffusion assay” value [4]?
**A.** ** (activity detected with 3 μg of protein)

**Q.** What about the “Activity in agar disc-diffusion assay” value [5] of the same molecule?
**A.** *** (activity detected with 0.3 μg of protein)

**Q.** And the “Activity in agar disc-diffusion assay” value [6]?
**A.** * (activity detected only with 30 μg of protein)

**Q.** What about the “Activity in agar disc-diffusion assay” value [7] of the same molecule?
**A.** *** (activity detected with 0.3 μg of protein)

**Q.** And the “Activity in agar disc-diffusion assay” value [8]?
**A.** *** (activity detected with 0.3 μg of protein)

**Q.** And the “Activity in agar disc-diffusion assay” value [9]?
**A.** ** (activity detected with 3 μg of protein)

**Q.** And the “Activity in agar disc-diffusion assay” value [10]?
**A.** ** (activity detected with 3 μg of protein)

**Q.** What about the “Activity in agar disc-diffusion assay” value [11] of the same molecule?
**A.** *** (activity detected with 0.3 μg of protein)

**Q.** And the “Activity in agar disc-diffusion assay” value [12]?
**A.** *** (activity detected with 0.3 μg of protein)

**Q.** What about the “Activity in agar disc-diffusion assay” value [13] of the same molecule?
**A.** *** (activity detected with 0.3 μg of protein)

**Q.** And the “Activity in agar disc-diffusion assay” value [14]?
**A.** *** (activity detected with 0.3 μg of protein)

**Q.** What about the “Activity in agar disc-diffusion assay” value [15] of the same molecule?
**A.** ** (activity detected with 3 μg of protein)

**Q.** And the “Activity in agar disc-diffusion assay” value [16]?
**A.** *** (activity detected with 0.3 μg of protein)

**Q.** What about the “Activity in agar disc-diffusion assay” value [17] of the same molecule?
**A.** *** (activity detected with 0.3 μg of protein)

**Q.** And the “Activity in agar disc-diffusion assay” value [18]?
**A.** *** (activity detected with 0.3 μg of protein)

**Q.** What about the “Activity in agar disc-diffusion assay” value [19] of the same molecule?
**A.** *** (activity detected with 0.3 μg of protein)

**Q.** What about the “Activity in agar disc-diffusion assay” value [20] of the same molecule?
**A.** * (activity detected only with 30 μg of protein)

**Q.** What about the “Activity in agar disc-diffusion assay” value [21] of the same molecule?
**A.** ** (activity detected with 3 μg of protein)

**Q.** And the “Activity in agar disc-diffusion assay” value [22]?
**A.** *** (activity detected with 0.3 μg of protein)

**Q.** And the “Activity in agar disc-diffusion assay” value [23]?
**A.** * (activity detected only with 30 μg of protein)

**Q.** What about the “inhibition on lawns of S5 producer strains HP6 and HP7” value ([24]; clinical isolates HP6 and HP7, S5 gave turbid zones with 3 μg and 30 μg) of the same molecule?
**A.** significantly larger and clearer than those formed by S5

**Q.** What about the “activity spectrum / profile in agar disc diffusion assay” value ([24]; panel of 25 P. aeruginosa strains, in words) of the same molecule?
**A.** broadened activity spectrum in comparison to pyocin S5

**Q.** And the “inhibition zones on lawns of S5-producing strains” value ([24]; six pyocin S5 and immunity gene-positive strains (PA14, PAO1, HP6, HP7, ATCC 19660, NCTC 13921))?
**A.** formed inhibition zones on the lawns of all six S5-producing strains
